Results taken from patent EP4713368A1 (dated 2026).
Changes are numbered by the printed parent chain. Values belong to the binder of their own block, whether it stands above or below them.

Biological target: T1, human CD28 (human, UniProt P10747 19-152, limits assumed)
T1 construct: also called Cluster of Differentiation 28; Tp44
Experiment: selection from yeast-presented synthetic human antibody libraries

B1: Ab No. 57 (antibody, V domains shown)
VH: QVQLQESGPGLVKPSETLSLTCTVSGGSISSYYWSWIRQPPGKGLEWIGSIYYSGSTNYNPSLKSRVTISVDTSKNQFSLKLSSVTAADTAVYYCARTEVGATRPREDFQHWGQGTLVTVSS
VL: QSVLTQPPSVSAAPGQKVTISCSGSSSNIGNNYVSWYQQLPGTAPKLLIYDNNKRPSGIPDRFSGSKSGTSATLGITGLQTGDEADYYCGTWDISLGWVFGGGTKLTVL
notes: IgG format
binding result: binds

B2: Ab No. 27 (antibody, V domains shown)
VH: EVQLLESGGGLVQPGGSLRLSCAASGFTFSNYAMSWVRQAPGKGLEWVSAISGSGGSTYYADSVKGRFTISRDNSKNTLYLQMDSLRAEDTAVYYCASFGDIAVAGAGFVNWGQGTLVTVSS
VL: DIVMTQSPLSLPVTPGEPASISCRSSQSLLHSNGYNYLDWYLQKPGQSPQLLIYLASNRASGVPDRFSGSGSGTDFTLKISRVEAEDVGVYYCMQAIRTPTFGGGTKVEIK
notes: IgG format
binding result: binds

B3: Ab No. 25 (antibody, V domains shown)
VH: EVQLVESGGGLVQPGRSLRLSCAASGFTFDDYAMHWVRQAPGKGLEWVSGISWSSGSIGYADSVKGRFTISRDNAKNSLYLQMNSLRAEDTAVYYCAKAWGRVGRANYYYYGLDVWGQGTTVTVSS
VL: EIVLTQSPATLSLSPGERATLSCRASQSVSSYLAWYQQKPGQAPRLLIYDASNRATGIPARFSGSGSGTDFTLTISSLEPEDFAVYYCQQYSNFPPITFGGGTKVEIK
notes: IgG format
binding result: binds

B4: Ab No. 26 (antibody, V domains shown)
VH: B3 VH with K65E
VL: EIVLTQSPATLSLSPGERATLSCRASQSVSSYLAWYQQKPGQAPRLLIYDASNRATGIPARFSGSGSGTDFTLTISSLEPEDFAVYYCQQYANHLTFGGGTKVEIK
notes: IgG format
binding result: binds

B5: Ab No. 13 (antibody, V domains shown)
VH: QVQLVQSGAEVKKPGSSVKVSCKASGGTFSSYAISWVRQAPGQGLEWMGGIIPISGTANYAQKFQGRVTITADESTSTAYMELSSLRSEDTAVYYCARGGIALSAGPSNIWGQGTLVTVSS
VL: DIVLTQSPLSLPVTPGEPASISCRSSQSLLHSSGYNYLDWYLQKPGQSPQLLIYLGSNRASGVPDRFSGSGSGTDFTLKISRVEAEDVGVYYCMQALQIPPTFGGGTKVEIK
notes: IgG format
binding result: binds

B6: Ab No. 15 (antibody, V domains shown)
VH: B5 VH with G100S, I101L, A102S, S104V, A105S, G106Y, P107G, S108P, N109A, I110V
VL: EIVMTQSPATLSVSPGERATLSCRASQSVSSNLAWYQQKPGQAPRLLIYGASTRATGIPARFSGSGSGTEFTLTISSLQSEDFAVYYCQQYITHPPTFGGGTKVEIK
notes: IgG format
binding result: binds

B7: Ab No. 3 (antibody, V domains shown)
VH: QVQLVQSGAEVKKPGSSVKVSCKASGGTFSSYAISWVRQAPGQGLEWMGGIIPISGTANYAQKFQGRVTITADESTSTAYMELSSLRSEDTAVYYCAKALAPGIPQWGQGTLVTVSS
VL: DIQMTQSPSSLSASVGDRVTITCRASQSISSYLNWYQQKPGKAPKLLIYAASSLQSGVPSRFSGSGSGTDFTLTISSLQPEDFATYYCQQAYDDPTFGGGTKVEIK
notes: IgG format
binding result: binds

B8: Ab No. 4 (antibody, V domains shown)
VH: B7 VH
VL: DIQMTQSPSSLSASVGDRVTITCRASQSISRYLNWYQQKPGKAPKLLIYGASSLQSGVPSRFSGSGSGTDFTLTISSLQPEDFATYYCQQAFSSPITFGGGTKVEIK
notes: IgG format
binding result: binds

B9: Ab No. 1 (antibody, V domains shown)
VH: QVQLVQSGAEVKKPGASVKVSCKASGYTFTSYAMHWVRQAPGQRLEWMGWINAGTGATKYSQKFQGRVTITRDTSASTAYMELSSLRSEDTAVYYCAKDIGSGFYELSLDYWGQGTLVTVSS
VL: DIQMTQSPSSVSASVGDRVTITCRASQGISSWLAWYQQKPGKAPKLLIYAASNLQSGVPSRFSGSGSGTDFTLTISSLQPEDFATYYCQQIISLPLTFGGGTKVEIK
notes: IgG format
binding result: binds

B10: Ab No. 11 (antibody, V domains shown)
VH: QVQLVQSGAEVKKPGSSVKVSCKASGGTFSSYAISWVRQAPGQGLEWMGGIIPISGTANYAQKFQGRVTITADESTSTAYMELSSLRSEDTAVYYCARDRGLGFPHLVWGQGTLVTVSS
VL: B9 VL with N53S, I91G, I92N, L96I
notes: IgG format
binding result: binds

B11: Ab No. 6 (antibody, V domains shown)
VH: QVQLVQSGAEVKKPGSSVKVSCKASGGTFSSYAISWVRQAPGQGLEWMGGIIPISGTANYAQKFQGRVTITADESTSTAYMELSSLRSEDTAVYYCAKGGFGAPLPTWGQGTLVTVSS
VL: B9 VL with N53S, I91G, L94H, L96F
notes: IgG format
binding result: binds

B12: Ab No. 5 (antibody, V domains shown)
VH: B11 VH
VL: B9 VL with M4L, G28D, N53S, I91G, I92N, S93A, L94H, L96F
notes: IgG format
binding result: binds

B13: Ab No. 7 (antibody, V domains shown)
VH: B11 VH
VL: B8 VL with R31S, G50S, A91G, F92S, S94V, I96F
notes: IgG format
binding result: binds

B14: Ab No. 28 (antibody, V domains shown)
VH: EVQLLESGGGLVQPGGSLRLSCAASGFTFSSYAMSWVRQAPGKGLEWVSAISGSGGSTYYADSVKGRFTISRDNSKNTLYLQMNSLRAEDTAVYYCVRGYRLVGILTGSHFDYWGQGTLVTVSS
VL: DIQMTQSPSTLSASVGDRVTITCRASQSIGSWLAWYQQKPGKAPKLLIYKASSLESGVPSRFSGSGSGTEFTLTISSLQPDDFATYYCQQYNILPPTFGGGTKVEIK
notes: IgG format
binding result: binds

B21: Ab No. 22 (antibody, V domains shown)
VH: QVQLVQSGAEVKKPGSSVKVSCKASGGTFSSYAISWVRQAPGQGLEWMGGIIPISGTANYAQKFQGRVTITADESTSTAYMELSSLRSEDTAVYYCVRARGIVGPDEGPWGQGTLVTVSS
VL: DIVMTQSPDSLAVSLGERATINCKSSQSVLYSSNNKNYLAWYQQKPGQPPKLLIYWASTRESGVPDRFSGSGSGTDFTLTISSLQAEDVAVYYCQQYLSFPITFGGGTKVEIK
notes: IgG format
binding result: binds

B24: Ab No. 21 (antibody, V domains shown)
VH: B10 VH with A97T, R100L, L102F, F104A, P105I, H106R, L107D, V108T
VL: EIVLTQSPATLSLSPGERATLSCRASQSVSSYLAWFQQKPGQAPRLLIYDASNRATGIPARFSGSGSGTDFTLTISSLEPEDFAVYYCQQSLNLPITFGGGTKVEIK
notes: IgG format
binding result: binds

Results, then the binder that gave them:

binding result: binds
B15: Ab No. 12 (antibody, V domains shown)
VH: QVQLVQSGAEVKKPGSSVKVSCKASGGTFSSYAISWVRQAPGQGLEWMGGIIPISGTANYAQKFQGRVTITADESTSTAYMELSSLRSEDTAVYYCARGGIALHRSSSGLLWGRGTLVTVSS
VL: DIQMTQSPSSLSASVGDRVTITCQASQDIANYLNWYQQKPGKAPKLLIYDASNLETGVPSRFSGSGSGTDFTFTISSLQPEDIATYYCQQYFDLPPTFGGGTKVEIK
notes: IgG format

binding result: binds
B16: Ab No. 46 (antibody, V domains shown)
VH: QVQLVQSGAEVKKPGSSVKVSCKASGGTFSSYAISWVRQAPGQGLEWMGGIIPISGTTNYAQKFQGRVTITADESTSTAYMELSSLRSEDTAVYYCARHSSSWGTAITSDYWGQGTLVTVSS
VL: QSVLTQPPSVSGAPGQRVTISCTGSGSNIGAGYDVHWYQQLPGTAPKLLIYGNTNRPSGVPDRFSGSKSGTSASLAITGLQAEDEADYYCQSNDNSLRGILFGGGTKLTVL
notes: IgG format

binding result: binds
B17: Ab No. 10 (antibody, V domains shown)
VH: B21 VH with V97A, A99D, R100K, I102G, V103L, P105R, D106G, E107G, G108R, P109Y
VL: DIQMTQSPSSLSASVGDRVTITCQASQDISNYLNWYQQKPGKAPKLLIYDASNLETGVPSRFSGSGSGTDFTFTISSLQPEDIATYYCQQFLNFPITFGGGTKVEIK
notes: IgG format

binding result: binds
B18: Ab No. 19 (antibody, V domains shown)
VH: QVQLVQSGAEVKKPGSSVKVSCKASGGTFSSYAISWVRQAPGQGLEWMGGIIPISGTANYAQKFQGRVTITADESTSTAYMELSSLRSEDTAVYYCARQYGTFAFYSDYWGQGTLVTVSS
VL: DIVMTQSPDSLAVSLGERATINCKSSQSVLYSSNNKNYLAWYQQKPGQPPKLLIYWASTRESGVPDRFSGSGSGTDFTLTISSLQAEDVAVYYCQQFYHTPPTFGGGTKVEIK
notes: IgG format

binding result: binds
B19: Ab No. 18 (antibody, V domains shown)
VH: B18 VH with Q99P, Y100E, G101K, T102G, A104T, F105S, Y106G, S107L, D108V, Y109D
VL: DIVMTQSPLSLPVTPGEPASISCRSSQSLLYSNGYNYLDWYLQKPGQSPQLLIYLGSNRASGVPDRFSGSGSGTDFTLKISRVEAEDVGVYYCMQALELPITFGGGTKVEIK
notes: IgG format

binding result: binds
B20: Ab No. 16 (antibody, V domains shown)
VH: B18 VH with Q99L, G101H, T102I, F103G, A104T, F105T, Y106G, S107Y, D108P
VL: B7 VL with A50G, A91S, D93Y
notes: IgG format

binding result: binds
B22: Ab No. 23 (antibody, V domains shown)
VH: B21 VH
VL: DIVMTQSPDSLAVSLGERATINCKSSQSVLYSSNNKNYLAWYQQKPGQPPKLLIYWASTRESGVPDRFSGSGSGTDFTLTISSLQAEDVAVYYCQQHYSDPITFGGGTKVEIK
notes: IgG format

binding result: binds
B23: Ab No. 14 (antibody, V domains shown)
VH: QVQLVQSGAEVKKPGSSVKVSCKASGGTFSSYAISWVRQAPGQGLEWMGGIIPISGTANYAQKFQGRVTITADESTSTAYMELSSLRSEDTAVYYCARGSLSLAAETPLWGRGTLVTVSS
VL: B24 VL with F36Y, N53K, S91Y, L94F
notes: IgG format

binding result: binds
B25: Ab No. 17 (antibody, V domains shown)
VH: B11 VH with I51V, K98R, G99L, G100Y, F101H, G102L, P104L, L105A, T107A
VL: B24 VL with L4M, F36Y, S91A, L92V
notes: IgG format

binding result: binds
B26: Ab No. 2 (antibody, V domains shown)
VH: QVQLVQSGAEVKKPGASVKVSCKASGYTFTSYAMHWVRQAPGQRLEWMGWINAGTGATKYSQKFQGRVTITRDTSASTAYMELSSLRSEDTAVYYCARDLVHSYGLLPGWGQGTLVTVSS
VL: B24 VL with F36Y, S91Y, L92S, L94W, I96F
notes: IgG format

binding result: binds
B27: Ab No. 20 (antibody, V domains shown)
VH: B10 VH with A97T, R100L, L102F, F104A, P105I, H106R, L107D, V108T
VL: B24 VL with F36Y, L92N
notes: IgG format

binding result: binds
B28: Ab No. 24 (antibody, V domains shown)
VH: QITLKESGPTLVKPTQTLTLTCTFSGFSLSTSGVGVGWIRQPPGKALEWLALIYWNDDKRYSPSLKSRLTITKDTSKNQVVLTMTNMDPVDTAVYYCARSFDQGIAVWGPFDYWGQGTLVTVSS
VL: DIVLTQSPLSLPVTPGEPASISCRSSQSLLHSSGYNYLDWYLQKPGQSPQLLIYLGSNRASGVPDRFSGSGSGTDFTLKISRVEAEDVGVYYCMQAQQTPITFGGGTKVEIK
notes: IgG format
